Laboratory results as given in PMC8060278 (Nature Communications, 2021).

B1: monomeric recombinant VHH81 (construct not stated for this experiment) (VHH)
VHH: EVQLVESGGGLVQPGGSLRLSCAASGRTFSYNPMGWFRQAPGKGRELVAAISRTGGSTYYPDSVEGRFTISRDNAKRMVYLQMNSLRAEDTAVYYCAAAGVRAEDGRVRTLPSEYTFWGQGTQVTVSS
notes: also called PMP12A2h1; source: produced in bacteria

Assays:
[1] = target: GPIbα LBD (Homo sapiens) (UniProt P07359); details: cited from earlier work
[2] = target: T1, purified VWF (Homo sapiens, UniProt P04275); assay: ELISA; VWF coated on plates (6 μg/mL in PBS); VHH81 detected with HRP-conjugated anti-VHH antibody; details: both partners purified
T1 construct: von Willebrand factor

[3] = target: T2, plasma-derived VWF (Homo sapiens, UniProt P04275); assay: as above; details: both partners purified
T2 construct: von Willebrand factor from plasma (multimeric); In the flow-chamber functional row the VWF is that of human whole blood; also called plasma VWF; Humate-P; source: reconstituted in PBS from outdated lyophilized Humate-P (CSL-Behring)

Sequence of GPIbα LBD (Homo sapiens) (P07359 17-306): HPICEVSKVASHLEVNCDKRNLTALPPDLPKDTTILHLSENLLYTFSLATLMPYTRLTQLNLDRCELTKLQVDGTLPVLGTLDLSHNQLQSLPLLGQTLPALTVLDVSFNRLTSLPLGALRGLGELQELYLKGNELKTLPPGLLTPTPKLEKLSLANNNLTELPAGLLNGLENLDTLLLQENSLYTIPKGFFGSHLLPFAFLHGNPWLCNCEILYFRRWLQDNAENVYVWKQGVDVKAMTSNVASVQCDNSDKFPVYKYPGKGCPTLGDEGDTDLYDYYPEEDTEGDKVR

Molecule	Kd [1]	Kd [2]	Kd [3]
von Willebrand factor AIM-A1 1238-1471 (from UniProt P04275)	32000 nM		
B1		~20 nM	~20 nM
